In paper PMC11189427 (Scientific Reports, 2024):
Values joined by “and” are separate entries in the source; they are usually repeats but may differ in a detail not shown here. Equal values may be shown once.

Molecular target: the molecule itself
Experiment: cryo-EM structure

B1: Hendra henipavirus nucleoprotein (natural protein)
chain: MSDIFDEAASFRSYQSKLGRDGRASAATATLTTKIRIFVPATNSPELRWELTLFALDVIRSPSAAESMKIGAAFTLISMYSERPGALIRSLLNDPDIEAVIIDVGSMLNGIPVMERRGDKAQEEMEGLMRILKTARESSKGKTPFVDSRAYGLRITDMSTLVSAVITIEAQIWILIAKAVTAPDTAEESETRRWAKYVQQKRVNPFFALTQQWLTEMRNLLSQSLSVRKFMVEILMEVKKGGSAKGRAVEIISDIGNYVEETGMAGFFATIRFGLETRYPALALNEFQSDLNTIKGLMLLYREIGPRAPYMVLLEESIQTKFAPGGYPLLWSFAMGVATTIDRSMGALNINRGYLEPMYFRLGQKSARHHAGGIDQNMANKLGLNSDQVAELAAAVQETSVGRQDNNMQAREAKFAAGGVLVGGGEQDIDEEEEPIEHSGRQSVTFKREMSMSSLADSVPSSSVSTSGGTRLTNSLLNLRSRLAAKAIKESTAQSSSERNPPNNRPQADSGRKDDQEPKPAQNDLDFVRADV
notes: copies: 28
  stoichiometry N: 14 protomers per ring and 28 protomers per double-ring assembly
